# Data taken from the NTF2 design screens of Basanta et al. (2020).
# Assay: protease stability score; higher = more stable; yeast display proteolysis, trypsin and chymotrypsin;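 also: relative to predicted unfolded state with 0 unfolded-like and 1 meaning tenfold more protease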
row,Sequence,protease stability score
1,DEHEERLEHWAEVIIRSWITGDESLFRHLFDPHVRTEVNGVERHGRDEAVKMERLIREHLGVKHEEIKDYHVQGDKIHVDSRVDVNGVKINTRIHVLVVNGRIKEVRFEFD,0.841
2,DEHEESAEWHSELMIRSMETGDEDLFEHLLDPRARFHINGQDIHGRDSISHFLSRRLKDMGFKHSSLKTVTIEVQGEWVYLRIKVILIVDGRHLDTEIIIISRKIDGVWHVHSMEIRFR,1.34
3,DEHEESVIWLLDVMFDAWRTGDEERVRRYLDPNVRIEVDGVSIHGRERVVEHLRRIDHLSVERVEIHHSTVINGVARTDGHVLLEFNIGDKHFRIERKSDSIVEKIDGRWIVHELTYR,0.202
4,DEHEETIKRLAEIMEKWWFTGDEDALRLLLDPHVRIHLHQGDFNLDLIGMEHLRRLIHELIRKLGIDHSILKDRDIQGDKVTIHMELRIGDKTVTSHITMVMINGRLESFKIHFK,1.32
5,DEHEETMHWALEVIEEFLQTGDERLMEENLDPNVRLEYGDKILVGRELFLELLRRLVEKYKNIRINIHDIKLYDGRLYLDVELRYGDFRSTTRIFSEKYNGRWVDRSYHVE,1.71
6,DEHEEYMEELVKSIYTLWKTGDEDTLLSLFDPNMRILIDGVDAVGRENFKEEFRRFKEEIRHKDHKIHHIDIQGEKIRTEVLVHGIWDGVDTTLHVEIRIVVINGRVKSIEFHFT,1.74
7,DEHEHAFRIIAEMLVEAMKTGNEETFSRLFDPNVRITWNGRHNHGRENYVEFIRQIRVDDLHIVLEDVRVIDGVIEVHGKMRIHGIVNGRRDEFIWESRVVIVKIDGRWHIESIRFD,1.09
8,DEHEHFMEYAMKRMLHSWLTGDEHDWHELADPNVKLHIGEYNFIGREEYYRHLHRHLHEAGFKHIKIDHIHVEIQGEKLIFRMDTTIHFNGRKLRVEVIVILFKVNGRWSLHTDEVHIE,0.931
9,DEHEHLALRMTTRFTDMLRTGDWENMLRYFDPDARIIIDGRKHHGRERMHEIWREIRVTDLRINRERVRVQGDFVINHIDGEEDVEIGDKRISTRSIIILVVHKIDGRWHMKELEINIV,0.796
10,DEHEHLMLKVVLISIRALLTGDEDRFEHLADPHTRVEVNGVERHGREEYRKWLEHIRIKHIEVEESRAQGDFVHLNGRLRVSYGDKRFETETRWDWIIVDGKLKEMRIRIN,1.26
11,DEHEHMTELAHRIIMKTWETGDEEEQHRMFDPHARLIIDGKNIHGREQIQREMKRFSEEIRLRDATIHRVEIQGNKVISDWRLRIDVDGREVHFESHVIIRKVNGRWRIDHLILN,1.21
12,DEHEHQADHMQEILIRSHETGDEDLIREFFDPHARLDIGDKHNIGRESIKRFIHELLRILGLDNITLRVRHKTIQGDKIITHLELEVNGKRLEVIIHNEKINGQWSVRKVEWR,1.98
13,DEHEHVVERMARIQYKEMVTGDEELWYHLADPRVRYEIGDKEIIGREEVFRFIIEHKRDLGISKIDVRIRDIDLQGEWAIIDGTININGRKLETTIHLLVVDGRLKTFSLEIK,1.33
14,DEHEKEWQELFRLAAHVLETGDEKMLQHLIDPSARTRINGKYTHGWEESARTLHEIRRRLGIDHEEITDHEIQGDKVIIHGRSQVGDKNFTVNIEWIIVNGRLKSVNFTIH,0.55
15,DEHEKHDRELKRIWVELFETGDEDTLIELADPNPRSRVNGKEFHGMEDIVQFLREWKMRIKGVREEIHHVDVINGRVRIDMKRFVGDKEFDVTIHLYVINGRFKQEEVRVH,0.222
16,DEHEKIIKHFLELFMWALRTGDEEINRHLVDPNVRVDVNGVILIGREEVVHYLRHLQEKLGMEIEEVRVEDMSVFDGRLHVDMRIHGRIGDKHTTIETHYLILKFDGRWILEHRRIR,2.37
17,DEHEMEIRDFIDKFLQSLRTGDEEKVHKLIDPHVRTQIDGQEFHGREEFLRFLRTHLERLGVDHIDVDLQQIEIVGEKINIHGTLTIEIDGRYLRHTFHLRVEKVNGKWIIESIRMT,2.15
18,DEHENVMHDAIENIEHMIHTGDEHISERLLDPNVKLDVNGRRFHGWEEFNKWLHHMGADVVDHKRLESQGDKVHTDGRVFFNGREYDSEINSLKVNGRWLITEVRIH,0.337
19,DEHEQEANEMMHRSLETLETGDERLLRHMADPNTKVQVGDKTWHGWHLLHEYRKEFRHARIIIREIDIQGEFVFLHGELDVNGKRLERTIIQLKVDGRWILHHMHLR,0.435
20,DEHEQFLRDIAIILIHAHLTGDWKRLEEMLDPNVRFEIDINGRSIEQHGRELYLRWVRKIHNEIWFRIEIEDISVINGRASVKVRLDLNVGDKVLHTRIHIEVVVIDGVLRSESIRVR,2.69
21,DEHERDAHRFIEHLWRILATGDEEELRKLFDPDAKHHDENELYHGREKVTKFISHRFKHLGIDHVEFRLTDLEVQGDKVISRILVIQRVNGVEYRIDMLFIFHKINGRWLIKSLEVH,1.36
22,DEHEREMHRLVDLLIKLLETGDEEISLRLADPHTRHDINGVHDHGRDKWEKSWEEHKKHLGWRIHYRIRDFRTQGDKARMEIQVDLHIGDKNIHLETHLLLISIDGVIKEIRIIIL,1.39
23,DEHERLAEIALRLYVHDIRTGDEHRLRKLFDPHVRFVIGDKVYHGWEEMKWILEHIRRELGVKHIKDEDSRHVHLQGDKMYTELRLHVNQGDYETELEVFMVSVKVNGQWLTHSFELR,1.21
24,DEHERLLIKIARIITNLLLTGDEDIMEELADPNVRFELDFNGVDIHLIGMDFWRHNLEHWWVDHFRLEDVKIQGDYAHLKLNVHMEINGRRHETHTRLSIVVVNGKLKSMRFHLI,1.2
25,DEHETDKQLAIDLLIEVIQTGDEHTTRRLADPNVKVVIDGREFHGRDFLARMIHEMRFHRIHVEEVRVIDGVVHSNLRVRGEYNGKHVDTRSSIHIKKVNGRWVIESVLIE,2.04

row,Sequence,protease stability score
1,DEHHEEIHRLVEIFLHLELTGDEDTWRELADPTAQIHIDGRDIHGMEDVLRVWEQFKKEMGIDHIRVKDYKVQGNFMHINTELEFNGRRVDSRIEIYIYDGRIKSVIIRYR,2.25
2,DEHHEFSRTATEMWIHFMETGDEHDLRNLIDPNVKTKVGDKHHHGREFLVKWLLTFMERADHVEIRLNDIKLQGDKIHIEGRLIIIVGDKEIHIHVERDIIKVNGRWVVHSVIFR,1.21
3,DEHHEILDHFLHLWIEALHTGDWKLIEKLIDPHAKLRIHQGDKHIEIHGREEVVRREEEWLRRIKNLRLHIDRIEIQGNKFHMEITLHFDGVTVDSRVILFVYDGQIKHIEIRHN,2.43
4,DEHHEILREASELFIKAWLTGDEDTMQEMMDPHTRVVFNGRTHHGWTFASEILERIKNIRIQIDDVRHQGEYVEIHFKLHIDGVRWNTKIHLHVIDGKLKRIQHTTE,1.01
5,DEHHEIVRSMSELLTHLHLTGDEEKLSRMADPRVRLDVNGQWFHGREQWEKAFEDFEREMGAKHVKVDHVHVQGNKIILHFHVNVDGVHITVEFDIIIVDGRLKREHIRLK,0.621
6,DEHHERARKVAHLFMRIFETGDEDSMNELLDPNVRWVLIYGDKRFELHGWEELDKDIRRYDHHRLEMKHVEIQGNKADNDTRLRLRFDGKDIETETRLHIRVVDGVMKEVTFDIH,0.364
7,DEHHETLKRMTDQTLHVIHTGDEETWNQLADPNTLIRIIFENREINIHGWHLVVRWLQHLHRELRIEIDIRDIEIQGNKVHVEGELHVHQGEKEINIRIIFHFIVVNGRLRDVTIDFR,1.3
8,DEHHEVAHRISTMLTHILMTGNEEWLSHLADPRVRSEIGDFEIHGREHMEELLHRILNKLGADHLRIHHIEIRIQGDFLIVKVHGRTHIGDKTVTHEIIFIIIKINGRWHLHSIWFDFE,1
9,DEHHEVSEKVAKLFLEIWETGDWKTLKRLADPRVRTHIIIGDKTINEHGRENYIRSTVEFLERFPNMRYEIREVRVIGDKIETQGEMNVNGKTFDVIIELIIIDGRIKEVRVENR,1.08
10,DEHHKHLHHLAEHTLRLIATGDEDRFSDLADPHTRLRVNGVDVIGRELVIELWKRMLEQIRITDVHVKRSVVIDGVVHQDTELHSTVGDKRFELKTKSHIFIINGRIHMVEIQHE,-0.28
11,DEHHKHVKEMLDLWRRNMETGDWDEIHKLADPHVRMIIFVGDKEIHSHGREEVHRVLEEWIRRMGVDHLVLHDVTLQGNKIIIDTQRNFDGRYLDTSEIIIVVNGRIKEVTFEEK,0.341
12,DEHHKILTELMRDALRYEETGDWDETSKLLDPRTRLDFNGVEVIGREAYEHLLRFLGIKVFRETDMEVQGDKIKLNGRSNFNGRETEHYIYALKVDGRWILRSVEFK,1.3
13,DEHHRLARDFWKMLADILKTGDEEIFRDLADPDTRMIQGDKLYHGRELISRELVRQVKEWRLHDFELHHIDEVNGRLLVDSRLVGHFDGRHYLMHVRIFMHKVDGRWVLHEMHYE,1.38
14,DEHHRWLEQALHLWIHTILTGDEKVLHELFDPDVRLNVDGQDFHGRELMIKWFHDILRKFKNIRIKHIHIEDRRYYDGRLEIHTSVNVEFNGRPHEEKYRIIAFKIDGRWRLKEEEFH,1.8
15,DEHKDLAHKAITNFIEWTETGDFEMFLKLFDPNMRLRVDGQHHHGWHDVFRVFREMGYEIKSVKMDDVEIQGEKITVDLRVHVDINGQHEDIKTRYFFSKYDGKWIIEQIQVV,-0.276
16,DEHKEEFREWVERLEHVLKTGNEDELHELADPDVKVRIGDKEIHGMHEVLRFILEFYKKLGIDHRHLRIDDYRVQGDFLHIDGHLELTFNGRKHTHQLHIVVLKVNGRWILKEIRVS,2.25
17,DEHKEEIKKFIEEWERSMITGDEDRLWELADPNTRLRQGEFEIHGMEILIEAEHRIVEKYKGLTIESIEMKHIDIINGVVVLYSKIRVRQGDKETEIFIIIYIIKINGQWRLHSLEIR,1.34
18,DEHKEILREYAKKFLNDVMTGDEDEIEHLADPHARVEIGDKDIHGWEQWIKHLSRTWKELRIEDYRIRSIELVNGVVHLDTHLHIRIGDKRFDTQVEIHLVVINGKVKSVRVDIR,1.12
19,DEHKELHERLLKMWLSIWETGDEERLRRNADPDTRFKHDFNGREETVVGRENVAKVLEDLRRELGIDHVHIRHFDVQGNYVDLTTELHFNGRIVNFHIIIRVVNGKLKEIHFELR,1.26
20,DEHKEQLRRIFELMLHLFLTGDWKQLWELADPHARFRIDGRDIHGRDNFAEEVKRIVDEWRIHIDPRHIDVFDGVNHVRTDLFFEYDGRKLRHHTRVINIVVDGRLKEVEFRIE,1.36
21,DEHKESLKRAFELWVETVKTGDEQRTEELIDPHVRVVIGDKEIHGMKETSRHILEMRVKSFRLRHYHFVNGRVNILGEIDGEFDGRRRDVDITIHIQKFNGRWLIDELHFG,2.27
22,DEHKHIAEEIARIVLENWMTGNEEIFKKMADPHVRVHINGKKSHGRDHYHELWRLLFEHIRIEHLHIRHMDKQGDFVRVEVEVTGHIDGRRETVESEFRIRTVNGVLRDVEIHFH,1.2
23,DEHKKESKETAEIVMELRKTGDWDEFSRLADPNVKIDVDVNGKRINNIGWESFVEFVLKERDEWRLEDYKIRDIRVIDGVAEIDGEITGVFNGQREKREFRIIVVVVNGRLKSVQLKFK,1.29
24,DEHKREMRILLQLWREFWLTGDWRNILKNADPDYRLTVNGRDFVGMELATEFLEIILRHLRVKHIILRHEELVDGVLHVEGEIDGNIDGKETIHENEINMFVYNGKIHEVELHLK,1.36
25,DEHLEYVREIARLFWQLLSTGDEENLRKLFDPNARLDVNGQEFHGREEIIIFLRHWRMRSKDIRIHHVNVQGEKMEVDIHTDLEFEVGDFKYEEHTRVEIIVEKINGRWLVRHVKIR,0.437
